# In publication PMC11558545, “Mechanistic Insights into the Function of 14-3-3 Proteins as Negative Regulators of Brassinosteroid Signaling in Arabidopsis” (Plant and Cell Physiology, 2024):
# B1: BAK1^250-615: BAK1/SERK3 cytoplasmic domain (residues 250–615) after incubation with BRI1^814−1196 (protein)
# chain: RRKKPQDHFFDVPAEEDPEVHLGQLKRFSLRELQVASDNFSNKNILGRGGFGKVYKGRLADGTLVAVKRLKEERTQGGELQFQTEVEMISMAVHRNLLRLRGFCMTPTERLLVYPYMANGSVASCLRERPESQPPLDWPKRQRIALGSARGLAYLHDHCDPKIIHRDVKAANILLDEEFEAVVGDFGLAKLMDYKDTHVTTAVRGTIGHIAPEYLSTGKSSEKTDVFGYGVMLLELITGQRAFDLARLANDDDVMLLDWVKGLLKEKKLEALVDVDLQGNYKDEEVEQLIQVALLCTQSSPMERPKMSEVVRMLEGDGLAERWEEWQKEEMFRQDFNYPTHHPAVSGWIIGDSTSQIENEYPSGPR
# modifications: auto- and transphosphorylated by incubation with BRI1^814−1196; sites not given
# B2: BSK1^55-512: BSK1 (residues 55–512) after incubation with BRI1^814−1196 (protein)
# chain: IPSFSEFSFADLKAATNNFSSDNIVSESGEKAPNLVYKGRLQNRRWIAVKKFTKMAWPEPKQFAEEAWGVGKLRHNRLANLIGYCCDGDERLLVAEFMPNDTLAKHLFHWENQTIEWAMRLRVGYYIAEALDYCSTEGRPLYHDLNAYRVLFDEDGDPRLSCFGLMKNSRDGKSYSTNLAYTPPEYLRNGRVTPESVTYSFGTVLLDLLSGKHIPPSHALDMIRGKNIILLMDSHLEGKFSTEEATVVVELASQCLQYEPRERPNTKDLVATLAPLQTKSDVPSYVMLGIKKQEEAPSTPQRPLSPLGEACSRMDLTAIHQILVMTHYRDDEGTNELSFQEWTQQMKDMLDARKRGDQSFREKDFKTAIDCYSQFIDVGTMVSPTVFGRRSLCYLLCDQPDAALRDAMQAQCVYPDWPTAFYMQSVALAKLNMNTDAADMLNEAAQLEEKRQRGGRGS
# modifications: phosphorylated by incubation with BRI1^814−1196 (mainly Ser230); left off: 8xHis, N-terminal, cleaved | tandem StrepII, N-terminal, cleaved
# B3: BRI1^814-1196: isolated BRI1 cytoplasmic domain (residues 814–1196) after incubation with the BAK1 cytoplasmic domain (protein)
# chain: GREMRKRRRKKEAELEMYAEGHGNSGDRTANNTNWKLTGVKEALSINLAAFEKPLRKLTFADLLQATNGFHNDSLIGSGGFGDVYKAILKDGSAVAIKKLIHVSGQGDREFMAEMETIGKIKHRNLVPLLGYCKVGDERLLVYEFMKYGSLEDVLHDPKKAGVKLNWSTRRKIAIGSARGLAFLHHNCSPHIIHRDMKSSNVLLDENLEARVSDFGMARLMSAMDTHLSVSTLAGTPGYVPPEYYQSFRCSTKGDVYSYGVVLLELLTGKRPTDSPDFGDNNLVGWVKQHAKLRISDVFDPELMKEDPALEIELLQHLKVAVACLDDRAWRRPTMVQVMAMFKEIQAGSGIDSQSTIRSIEDGGFSTIEMVDMSIKEVPEGKL
# modifications: auto- and transphosphorylated by incubation with BAK1^250−615; sites not given
# notes: isolated BRI1 cytoplasmic domain (residues 814–1196) after incubation with the BAK1 cytoplasmic domain
# B4: BIN2^7-380: BIN2 (residues 7–380) expressed either in Escherichia coli or in insect cells (protein)
# chain: MPAAVVDGHDQVTGHIISTTIGGKNGEPKQTISYMAERVVGTGSFGIVFQAKCLETGETVAIKKVLQDRRYKNRELQLMRVMDHPNVVCLKHCFFSTTSKDELFLNLVMEYVPESLYRVLKHYSSANQRMPLVYVKLYMYQIFRGLAYIHNVAGVCHRDLKPQNLLVDPLTHQVKICDFGSAKQLVKGEANISYICSRFYRAPELIFGATEYTTSIDIWSAGCVLAELLLGQPLFPGENAVDQLVEIIKVLGTPTREEIRCMNPHYTDFRFPQIKAHPWHKIFHKRMPPEAIDFASRLLQYSPSLRCTALEACAHPFFDELREPNARLPNGRPFPPLFNFKQEVAGSSPELVNKLIPDHIKRQLGLSFLNQSGT
# modifications: left off: thioredoxin A, N-terminal, cleaved | 8xHis, N-terminal, cleaved | StrepII, N-terminal, cleaved
# notes: BIN2 (residues 7–380) expressed either in Escherichia coli or in insect cells
# Target: T1, Arabidopsis 14-3-3 isoform kappa (14-3-3κ) (Arabidopsis thaliana, UniProt P48348)
# T1 construct: Full-length At14-3-3-κ^1−248 (Uniprot-ID P48348, http://uniprot.org); thioredoxin A (trxA) fusion (N, cleaved yes); 8xHis (N, cleaved yes); StrepII (N, cleaved yes); made in house; host or cells: E. coli BL21 (DE3) RIL
# Experiment: biochemical
# Format: binding
# Conditions: ITC; proteins auto-/transphosphorylated or expressed in E. coli or insect cells as described
# Text: Full-length At14-3-3-κ^1−248 (Uniprot-ID P48348, http://uniprot.org), At14-3-3-λ^1−248 (P48349), At14-3-3-ω^1−259 (Q01525) or C-terminal truncated At14-3-3-κ^1−240, At14-3-3-λ^1−240 or At14-3-3-ω^1−237 isoforms and BIN2^7−380 from Arabidopsis were cloned from synthetic genes codon-optimized for expression in E. coli (Geneart, Thermofisher, Tauberbischofsheim, Germany) into vector pMH-HStrxT providing an N-terminal thioredoxin A (trxA) fusion protein containing 8xHis and StrepII affinity tags, and a tobacco etch virus protease (TEV) recognition site. Protein expression in E. coli BL21 (DE3) RIL grown to OD600nm= 0.6 was induced with 0.2 mM ispropyl β-D-galactoside in terrific broth at 16°C for 16 h. Cells were collected by centrifugation at 4500 × g for 30 min, washed in PBS buffer, centrifuged again at 4500 × g for 15 min and snap-frozen in liquid N2. For protein purification cells were resuspended in buffer A (20 mM Tris–HCl pH 8.0, 500 mM NaCl), and lysed by sonication (Branson DS450). The lysate was cleared by centrifugation at 7000 × g for 60 min and filtrated using a 0.45 µm molecular weight cutoff filter (Pall Corporation, Port Washington, NY, USA). The supernatant was loaded onto a Ni^2+ affinity column (HisTrap HP 5 mL, Cytiva Life Sciences, Freiburg im Breisgau, Germany), washed with buffer A and eluted in buffer A supplemented with 250 mM imidazole pH 8.0. The elution fractions containing the trxA-14-3-3 or trxA-BIN2 fusion proteins were loaded onto a 5 mL Strep-Tactin Superflow High Capacity column (IBA Lifesciences, Goettingen, Germany), washed with buffer A and eluted in buffer A supplemented with 2.5 mM desthiobiotin. […] Dimeric (14-3-3s) or monomeric (BIN2) peak fractions were concentrated to 10–40 mg/ml and used directly for biochemistry and crystallization experiments. Point mutations were introduced by site-directed mutagenesis and variants At14-3-3 λ^N233A and 14-3-3 λ^R136L/Y137F were purified using the same protocol as described for the wild type.
# The BRI1^814−1196 and BAK1^250−615/SERK3 cytoplasmic domains were purified as previously described ([Bojar et al. 2014]). BSK1 (residues 55–512), BSU1 (residues 1–793) and BIN2 (residues 7–380) were cloned into a modified pACEBac1 plasmid ([Bieniossek et al. 2012]) providing TEV-cleavable N-terminal 8xHis and tandem StrepII affinity tags, and expressed in baculovirus-infected Trichoplusia ni Tnao cells ([Hashimoto et al. 2010]). Cells grown to a density of 1.5 × 10^6 cells ml^−1 were infected with 10 ml of virus subjected to two rounds of viral amplification per 250 ml of cells and incubated for 48 h at 28°C. […]
# T1 sequence (P48348 whole entry, the tested form may be a part, canonical isoform): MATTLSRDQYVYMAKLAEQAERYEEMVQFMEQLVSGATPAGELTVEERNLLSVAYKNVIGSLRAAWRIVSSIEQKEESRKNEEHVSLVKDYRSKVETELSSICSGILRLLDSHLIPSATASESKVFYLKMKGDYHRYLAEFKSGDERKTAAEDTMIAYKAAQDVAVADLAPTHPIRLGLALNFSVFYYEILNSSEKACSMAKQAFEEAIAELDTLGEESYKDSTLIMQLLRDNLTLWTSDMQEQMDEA
row,Molecule,"binding to 14-3-3κ, in words"
1,B1,No specific binding was detected
2,B2,No specific binding was detected
3,B3,No specific binding was detected
4,B4,No specific binding was detected
